In patent publication US20170369576A1:

Columns and labels:
[1] = target: HIV-1 envelope glycoprotein of isolate 92TH594 (R5/X4), on pseudotype virus (HIV-1 (92TH594)); assay: cell-based or functional assay
[2] = target: HIV-1 envelope glycoprotein of isolate HXB2 (X4), on pseudotype virus (HIV-1 (HXB2)) (UniProt P04578); assay: cell-based or functional assay
[3] = target: HIV-1 envelope glycoprotein of isolate JRCSF (R5), on pseudotype virus (HIV-1 (JRCSF)); assay: cell-based or functional assay
[4] = target: chimpanzee CD4 on PBMC (chimpanzee) (UniProt P16004); assay: FACS of chimp X282 PBMC, sequential staining: 1st B4 binding, 2nd Leu3a exposure; competitor B4 prebound
[5] = target: chimpanzee CD4 on PBMC (chimpanzee) (UniProt P16004); assay: FACS of chimp X282 PBMC stained with Leu3a-PE only
[6] = target: chimpanzee CD4 on PBMC (chimpanzee) (UniProt P16004); assay: FACS of chimp X301 PBMC, sequential staining: 1st Leu3a binding, 2nd B4 exposure
[7] = target: chimpanzee CD4 on PBMC (chimpanzee) (UniProt P16004); assay: FACS of chimp X301 PBMC, sequential staining: 1st B4 binding, 2nd Leu3a exposure; competitor B4 prebound
[8] = target: chimpanzee CD4 on PBMC (chimpanzee) (UniProt P16004); assay: FACS of chimp X301 PBMC stained with Leu3a-PE only
[9] = target: chimpanzee CD4 on PBMC (chimpanzee) (UniProt P16004); assay: FACS of chimp X282 PBMC, sequential staining: 1st Leu3a binding, 2nd B4 exposure

Chain of chimpanzee CD4 on PBMC (chimpanzee) (P16004 26-458): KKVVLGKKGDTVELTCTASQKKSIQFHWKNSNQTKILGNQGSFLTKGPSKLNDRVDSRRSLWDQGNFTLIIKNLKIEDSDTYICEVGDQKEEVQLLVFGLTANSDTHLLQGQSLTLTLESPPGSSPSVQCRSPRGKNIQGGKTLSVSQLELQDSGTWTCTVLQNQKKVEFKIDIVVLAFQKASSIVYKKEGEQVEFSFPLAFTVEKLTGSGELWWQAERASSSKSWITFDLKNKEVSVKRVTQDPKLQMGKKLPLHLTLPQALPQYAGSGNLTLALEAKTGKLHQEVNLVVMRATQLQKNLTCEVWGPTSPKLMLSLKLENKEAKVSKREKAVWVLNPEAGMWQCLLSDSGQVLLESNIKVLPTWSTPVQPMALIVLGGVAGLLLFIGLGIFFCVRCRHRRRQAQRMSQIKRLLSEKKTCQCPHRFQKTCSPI

| Substance | IC50 of HIV entry inhibition, pseudotype virus 92TH594 (R5/X4), U87-CD4+/CCR5+/CXCR4+ cells [1] [mg/L] | IC50 of HIV entry inhibition, pseudotype virus HXB2 (X4), U87-CD4+/CCR5+/CXCR4+ cells [2] [mg/L] | IC50 of HIV entry inhibition, pseudotype virus JRCSF (R5), U87-CD4+/CCR5+/CXCR4+ cells [3] [mg/L] | percent positive PBMC (Leu3a+ B4+) [4] [%] | percent positive PBMC (Leu3a+ B4-) [4] [%] | percent positive PBMC (single label control, Leu3a+) [5] [%] | percent positive PBMC (Leu3a+ B4-) [6] [%] | percent positive PBMC (Leu3a+ B4+) [7] [%] | percent positive PBMC (Leu3a+ B4-) [7] [%] | percent positive PBMC (single label control, Leu3a+) [8] [%] | percent positive PBMC (Leu3a+ B4-) [9] [%] |
| --- | --- | --- | --- | --- | --- | --- | --- | --- | --- | --- | --- |
| monoclonal neutralizing antibody 2F5 | 3 | 0.07 | 4 |  |  |  |  |  |  |  |  |
| anti-CD4 monoclonal antibody Leu3a |  |  |  | 1.2 | 0 | 25.5 | 0.3 | 3 | 0 | 44 | 0.1 |
| monoclonal neutralizing antibody 2G12 | 1.3 | 0.5 | 0.8 |  |  |  |  |  |  |  |  |
